Results taken from paper PMC12380274.

Tests used:
[1] = target: chicken p32/C1QBP/gC1qR clone M9 (residues 76-278) fused to the GAL4 activation domain (UniProt A0A8V1AMS0); assay: yeast two-hybrid, liquid β-galactosidase (ONPG) assay; conditions: triplicates over three independent experiments; for response: parent: 16.2
[2] = target: full-length pUL47 (RB-1B) with SR motif 3 mutated to AA, fused to the GAL4 DNA-binding domain (Marek's Disease Virus (Gallid alphaherpesvirus 2), strain RB-1B); assay: two-hybrid; SR mutants and Δ71-185 of pUL47 in pGBKT7 against p32(M9); β-galactosidase coloration and liquid β-galactosidase quantification relative to full-length pUL47 (1-808), triplicates over three experiments (Fig 4B, 4C)
[3] = target: pUL47 (RB-1B) domain 71-185 fused to the GAL4 DNA-binding domain (Marek's Disease Virus (Gallid alphaherpesvirus 2), strain RB-1B); assay: as above
[4] = target: full-length pUL47 (RB-1B) with SR motif 4 mutated to AA, fused to the GAL4 DNA-binding domain (Marek's Disease Virus (Gallid alphaherpesvirus 2), strain RB-1B); assay: as above

Row | Substance | response [1] [% vs 1-808] | also measured
1 | pUL47 (RB-1B) domain 71-185 fused to the GAL4 DNA-binding domain SR6 (SR motif 6, Ser-Arg to Ala-Ala) | 8.2 | –
2 | pUL47 of Marek's Disease Virus (RB-1B), full length, fused to the GAL4 DNA-binding domain (pGBKT7-UL47) SR3 (Ser-Arg to Ala-Ala); SR4 (Ser-Arg to Ala-Ala) | – | percent of parent ([1]; parent: 100): 71.2 % vs 1-808
3 | chicken p32/C1QBP/gC1qR clone M9 (residues 76-278) fused to the GAL4 activation domain (from UniProt A0A8V1AMS0 76-278) (domain or fragment) | – | reduction of β-galactosidase signal against full-length pUL47 [2]: 30%; β-galactosidase signal, percent of full-length pUL47 [3]: 16%; reduction of β-galactosidase signal against full-length pUL47 [4]: 30%
4 | pUL47 (RB-1B) domain 71-185 fused to the GAL4 DNA-binding domain SR5 (Ser-Arg to Ala-Ala); SR6 (Ser-Arg to Ala-Ala) | 10.1 | –
5 | pUL47 (RB-1B) domain 71-185 fused to the GAL4 DNA-binding domain SR1 (SR motif 1, Ser-Arg to Ala-Ala) | 25.4 | –
6 | pUL47 (RB-1B) domain 71-185 fused to the GAL4 DNA-binding domain SR2 (SR motif 2, Ser-Arg to Ala-Ala) | 13 | –
7 | pUL47 (RB-1B) domain 71-185 fused to the GAL4 DNA-binding domain SR1 (Ser-Arg to Ala-Ala); SR2 (Ser-Arg to Ala-Ala) | 24 | –
8 | pUL47 (RB-1B) domain 71-185 fused to the GAL4 DNA-binding domain SR5 (SR motif 5, Ser-Arg to Ala-Ala) | 20.4 | –
9 | pUL47 (RB-1B) domain 71-185 fused to the GAL4 DNA-binding domain SR3 (Ser-Arg to Ala-Ala); SR4 (Ser-Arg to Ala-Ala) | 3.7 | –
